From US20180036405A1 (Regeneron, published 2018)

Experiments:
[1] = molecular target: T1, EGFR on A431 epidermoid carcinoma cells (human, UniProt P00533 25-1210); assay: cell-based or functional assay
[2] = molecular target: T1, EGFR on A431 epidermoid carcinoma cells; assay: cell-based or functional assay; remark: listed apart in the source
[3] = molecular target: T2, human dimeric EGFR (EGFR.mFc) (human); assay: SPR 37C, mAb captured by anti-human Fc, EGFR.mFc analyte
T2 construct: Soluble dimeric EGFR construct
Procedure: (§1) Different concentrations of human monomeric (EGFR.mmh; SEQ ID NO:386) and dimeric (EGFR.mFc; SEQ ID NO:387) proteins were injected over the anti-EGFR monoclonal antibody captured surface at a flow rate of 50 μI/min. Antibody-antigen association was monitored for 4-5 minutes while dissociation of antigen from the captured monoclonal antibody surface was monitored for 10 min. Kinetic association (kₐ) and dissociation (kd) rate constants were determined by processing and fitting the data to a 1:1 binding model using Scrubber 2.0 curve fitting software.

[4] = molecular target: T3, human monomeric EGFR (EGFR.mmh) (human, UniProt P00533 25-647); assay: SPR 37C, mAb captured by anti-human Fc, EGFR.mmh analyte
T3 construct: Soluble monomeric EGFR construct
Procedure: as §1

IC50 of A431 Proliferation [1] | Kd [3] | koff [3] | kon [3] | t1/2 [3] | Kd [4] | koff [4] | kon [4] | t1/2 [4] | ADCC EC50 [2] | Binder | Maximum Cell Killing (%) [2]
9.97e-11 Molar | 35.4 pM | 1.35e-05 s⁻¹ | 381000 M⁻¹ s⁻¹ | 14.3 h | 5710 pM | 0.000727 s⁻¹ | 127000 M⁻¹ s⁻¹ | 0.267 h |  | H1H143P (antibody, human IgG1, V domains shown, Human IgG1 Fc (H1H)) VH: QVQLQESGPGLVMPSQTLSLTCTVSGGSINSGDYYWNWIRQHPGKGLEWIGYIYYSEISYHNPSLKSRVTTSIDTSTNQFSLKLSSVTAADTAVYYCARDRVELRAFDIWGQGTMVTVSS VL: DIQMTQSPSSLSASVGDRVTITCQASQDISNYLNWYQQKPGKAPKLLIYDASNLETGVPSRFSGSGSGTDFTFTISSLQPEDIATYYCQHYDSLPLTFGQGTRLEIK | 13%
1.39e-11 Molar | 21.7 pM | 1.94e-05 s⁻¹ | 894000 M⁻¹ s⁻¹ | 9.93 h | 5250 pM | 0.000967 s⁻¹ | 184000 M⁻¹ s⁻¹ | 0.2 h | 4.57e-11 Molar | H1H144P (antibody, human IgG1, V domains shown, Human IgG1 Fc (H1H)) VH: QVQLQESGPGLVMPSQTLSLTCTVSGGSINSGDYYWNWIRQHPGKGLEWIGYIYYSEISYHNPSLKSRVTTSIDTSTNQFSLKLSSVTAADTAVYYCARDRVELRAFDIWGQGTMVTVSS VL: DIQMTQSPSSLSASVGDRVTITCQASQDISNYLNWYQQKPGKAPKLLIYDASNLETGVPSRFSGSGSGTDFTFTISSLQPEDIATYYCQHYDSLPLTFGQGTRLEIK | 43%
1.41e-10 Molar | 8.31 pM | 7.51e-06 s⁻¹ | 903000 M⁻¹ s⁻¹ | 25.6 h | 1020 pM | 0.000405 s⁻¹ | 396000 M⁻¹ s⁻¹ | 0.483 h | 2.78e-12 Molar | H1H141P (antibody, human IgG1, V domains shown, Human IgG1 Fc (H1H)) VH: QVQLQESGPGLVKPSQTLSLTCTVSGGSISSGDYYWNWIRQYPGKGLELIGYIYYSGITYYNPSLKSRLTISLDTSKNQFSLKLSSVTAADTAVYYCARDRVELRAFDIWGQGTMVTVSS VL: DIQMTQSPSSLSASVGDRVTITCQASQDISNYLNWYQQKPGKAPKLLINDASNLETGVPSRFSGSGSGTDFTFTISSLQPEDIATYYCQHYDSLPLTFGQGTRLEIK | 41%
3.89e-09 Molar | 109 pM | 4.19e-05 s⁻¹ | 383000 M⁻¹ s⁻¹ | 4.6 h | 13900 pM | 0.00139 s⁻¹ | 100000 M⁻¹ s⁻¹ | 0.133 h | 7.25e-13 Molar | H1H103N (antibody, human IgG1, V domains shown, Tested in human IgG1 Fc format (H1H); also called H1M103N) VH: EVQLVESGGGLVQPGGSLRLSCAASGFTFSSYDMHWVRQTTGKGLEWVSGIGTAGDTYYPGSVKGRFTISREDAKNSLYLQMNSLRAGDTAVYYCARVGYDWNFVAFDYWGQGTLVTVSS VL: DIVMTQSPLSLPVTPGEPASISCRSSQSLLHSNGYNYLDWYLQKPGQSPQLLIHLVSIRASGVPDRFSGSGSGTDFTLKISRVEAEDVGIYYCMQALQTPWTFGQGTKVEIK | 17%
9.77e-11 Molar | 66.4 pM | 1.26e-05 s⁻¹ | 190000 M⁻¹ s⁻¹ | 15.2 h | 5760 pM | 0.000376 s⁻¹ | 65400 M⁻¹ s⁻¹ | 0.517 h |  | H1H147P (antibody, human IgG1, V domains shown, Human IgG1 Fc (H1H)) VH: EVQLVESGPGLVQPSQTLSLTCTVSGGSINSGDFYWSWIRQHPGKGLEWIGHIYYSGITYYSPSLKSRLTISVDTSKNQFSLKLSSVTAADTAVYYCARKRVTGEVDYWGQGTLVTVSS VL: DIQMTQSPSSLSASVGDRITITCQANQDINNYLNWYQQKPGKAPKLLISDASNLETGVPSRFSGSGSGTDFTFTISSLQPEDIATYYCQQYDNLPPTFGQGTRLEIKR | 13%
1.84e-09 Molar | 7.99 pM | 2.47e-05 s⁻¹ | 3.09e+06 M⁻¹ s⁻¹ | 7.8 h | 848 pM | 0.000789 s⁻¹ | 930000 M⁻¹ s⁻¹ | 0.25 h | 4.61e-11 Molar | H1H134P (antibody, human IgG1, V domains shown, Human IgG1 Fc (H1H)) VH: EVQLVESGGGLVQPGGSLRLSCAASGFTFDDFAIHWVRQTPGRGLEWVSGLSWNSAYIAYADSVKGRFTISRDNAKDSLYLQMNSLRPEDTALYYCVKDTDIHLWFLFDFWGQGTLVTVSS VL: not shown | 33%
2.88e-10 Molar | 65.1 pM | 5.62e-05 s⁻¹ | 863000 M⁻¹ s⁻¹ | 3.43 h | 5670 pM | 0.000943 s⁻¹ | 166000 M⁻¹ s⁻¹ | 0.2 h | 4.39e-13 Molar | H1H102N (antibody, human IgG1, V domains shown, Tested in human IgG1 Fc format (H1H); also called H1M102N) VH: QVQLQESGPGLVQPSQTLSLTCTVSGGSVSSGDYYWSWIRQHPGKGLEWIGHIYYSGITYYNPSLESRVTITLDTSKNQFSLNLRSVTAADTAVHYCARTAIIGTMDNWGRGTLVTVSS VL: EIVMTQSPATLSVSPGERATLSCRASQSVSSNLAWYQQKPGQAPRLLIYDASTRATGFPARFSGSGSGTEFTLTISSLQSEDFAVYYCQQYNTWWTFGQGTKVEIK | 48%
2.24e-10 Molar | 20.3 pM | 3.16e-05 s⁻¹ | 1.55e+06 M⁻¹ s⁻¹ | 6.1 h | 5270 pM | 0.00284 s⁻¹ | 539000 M⁻¹ s⁻¹ | 0.0667 h | 2.51e-13 Molar | H1H116N (antibody, human IgG1, V domains shown, Tested in human IgG1 Fc format (H1H); also called H1M116N) VH: QVQLQESGPGLVKPSQTLSLTCTVSGGSVSSGDYYWSWIRQHPGKGLDWIGHIYYSGSTYYNPSLKSRVTISLDTSKNQFSLKLNSVTAADTAVYYCARTAITGTMDYWGQGTLVTVSS VL: EIVMTQSPATLSVSAGERATLSCRASQSVSSNLAWFQQKPGQAPRLLIYDASTRATGIPARFSGSGSGTEFTLIISSLQSEDFALYYCQQYNSWWTFGQGTKVEIK | 29%
